Assay results: the DeepSol protein solubility set

Assay: soluble on expression in E. coli; label from the status in PepcDB or PDB records

| Sequence | soluble on expression in E. coli |
| --- | --- |
| MSLARRVGIYTRISRDDEGDALGVARQHRDCERLADLRSWQAVKVYEDNDVSAYKRHVVREQFELMLSDLGAGLIDGIVAYDLDRLARQPRDLERLIEIFDERPRLEFATVTNDVNLGTPDGRTMSRIMVAFANKSSHDASRRIKRKHLELAQQGKDSGGPAPYGWLKEDRSKVDPKAAAAIREAQREILAGVRIGTIRTRWQEQGLGNPRAGTKRMAHHHVEHILTSPRLVGYRTYHGEVLNDEDGRPVMGEWEAINTLEEWEAVCAAVAERKQKQPGRSLARKYMLSGIARCGLCKTKIRGQINQRWQPGSKATKFTYQCSVVNGGCGKVGRVGEPVDRLIAELALEEQRARAAATTVPIDQRWSRNAELEQVNDDITQLVNAERSKQITVTTLLQLLPGKERQRDELKLERARFYKELKQSEAKGDAANLTLDEFFGLPIERQQEIVLHRLSAVIIHPAGKGRRRFDPSLIEPVWREGHHHHHH | soluble |
| MSLTRDAASITPARVRAHVFRYPVSTPVKTSFGTMHDRPAVLVEVEDSDGAVGWGEVWCNFPACGAEHRARLVETVLAPLLTARAFADPAQAFAHLEARTAVLAIQTGEPGPLAQAIAGLDIALCDLAARRAGQPLWAWLGGSGDRIGVYASGINPENPEDVVARKAAEGYRAFKLKVGFDDARDVRNALHVRELLGAATPLMADANQGWDLPRARQMAQRLGPAQLDWLEEPLRADRPAAEWAELAQAAPMPLAGGENIAGVAAFETALAARSLRVMQPDLAKWGGFSGCLPVARAVVAAGLRYCPHYLGAGIGLQASAHLLAAVPGLASPGLLEVDANDNPLRSLLSPALATLHEGRITLGGAPGLGVTPDLAALRAACAAREGHHHHHH | soluble |
| GGKDYPFARFNKTVQVPVYSEQEYQLYLHDDAWTKAETDHLFDLSRRFDLRFVVIHDRYDHQQFKKRSVEDLKERYYHICAKLANVRAVPGTD | soluble |
| MSLSSTNDTIRRLQRDLLFLQNELRFEKFVRQQHLQNIGKLHREHILDMAVESERQKLLLTNKRYKAQIELLNSEIDKHRSESQAALNRRVKWENDFNNKIKALREEKKAWKSEESELKSSIESLISQLESIRNSQIDIAFSKNQLELKLQLYETKLKEYEQHLSCVNISKKQVSSSSDTSFGNTKMDSSMILSNSEAVSDEQERELIESEKHRMKLESENLHLQANIELLKKDLEAINVVYEAKIFDLEKRLSSEANAPELHNPVNLNYDAQLSKISEIKENYDELLTRYRELEGKFLESQAEVEELKNFQKPLVDTGSSIHSSPGLQQSKFIIRNDSLHPKVGPPRRQSTDTSRSTFRQYEGHHHHHH | soluble |
| MAAATATAAATSKKMTYEFTIDDDELSEDGKPSTDQATMCNIYKLNLPASASILSKQIAKSQAKRAKKEERHRRRVDLSTVREQDETRVSNSEENSQNASPRPMTASALVPPDEIPDSAPASHCGGGGGRSRIDSAPLGVKLQRQASLPEDQRKAEPMDEEEAELLAMLLGGIERNERKQMTLNGAGNQKIQEAPIVQAPQIPPSPGLPRLPPGAKVSEWLLERSSSPDNVSVISSVLLEDSGLLLNYQNSVGDEEEDVFFDAEEEKPDDVVNCVEHELQGKSLRVFVRDLSHVLGLSLNRNMAAMTQSLVRVEEETTTTDGPAANDSFRTGRSTSVSPRPTNEQFLRNTNGSATFNVKHSSTLARLQKLTPPNNGNTNPILSTTTTPLSSRTTRSVLRVHNVNSVPRPSVQNSTMSKSSVTANQTNRRAFSGVRMPDMNPTLQKSSPPVVTINPLTPSRPASVASSIGARSGVNGTMTASNLEGLQDLIQQQEDALRRAALNDQSTERKMSWQSDQDANNRQSTSVHSSLGSICSSKSIDGAHALSKMGTPTASRIPTPRSRLPTPRGSNLPKRVYVFFGNFGPNSR | not soluble |
| MEDGHISSWWVVDLGEEHQLMCNYYTFRQDGSRAFTRFWKFQGSMDGKTWTDLRVHEDDQTMCKAGQFASWPITAANALLPFRFFRLVLTGPTADTSTPWNFCICYLELYGYFR | not soluble |
| MSLKKFSCGFEVTKEVIGGKWKGLVLYFLMNGPKRTSELKRIIPNITQKMLIQTLRELEASGLVSRKMYNQVPPKVEYSSTELGESLKPILQELCQWGGYYAEQEYAEGEYEIVQPEQLSEGGSHHHHHH | soluble |
| SESSESKASSGLPIDLRGKRAFIAGIADDNGYGWAVAKSLAAAGAEILVGTWVPALNIFETSLRRGKFDQSRVLPDGSLMEIKKVYPLDAVFDNPEDVPEDVKANKRYAGSSNWTVQEAAECVRQDFGSIDILVHSLANGPEVSKPLLETSRKGYLAAISASSYSFVSLLSHFLPIMNPGGASISLTYIASERIIPGYGGGMSSAKAALESDTRVLAFEAGRKQNIRVNTISAGPLGSRAAKAIGFIDTMIEYSYNNAPIQKTLTADEVGNAAAFLVSPLASAITGATIYVDNGLNSMGVALDSPVFKDLDK | soluble |
| GIDIELQMLGERLLEGKIGSIVAIEPSTGEILCMVSAPTFDPRLMVGRQRGKNHLELARDSWKPLLNRSIMGQFPPGSTFKTTQALTFLQEGIITPQTAYSCYHGFVYAGLRVGCHSHGSPLPLVPAIATSCNGYFCWGLFHMIGAKKKYGSVQTAMNTWRDYMVSMGFGYPLGVDLPGEKRGMIPNAAYYDKNYRGSWNGLTIISISIGQGEVTATPLQIANLGATIANRGYYITPHVVKEVEDEPLDTLYTTKRYTKVSREHYQTVVEGMRSAVLGGTCRNANIPGIEVCGKTGTAQNRGKDHSAFMGFAPMNDPKIAVVVYVENGGWGATYGVPIGALIMEKYLKGELSPESEAKAAEIQNRRIDYGIHER | not soluble |
| MGSDKIHHHHHHMKIDELIALAAEQPTRISRRSGVSRSTLKRVGDGTSEPTLSTLREVALALGLDIKVAAHHACDPFAAAAARTLIDASVPENPHNQEILAWLHRFERWNINDPLTLVSEAGTLQGITHRQDAQFVKLNPRGIAELPELFQQHKTKWALSGAAAATVIMGQIVLGNSIVWHEPAHDLDVSALGTIVDVAEDADLILLPATVTELVGSYTQDRLNFVAPVQLVIDLHSLHMFEEADYLTSGWR | not soluble |
| MGHHHHHHSHMNILFLQWKVKLPPQKEVITSDELMAHLGNCLLSIKPQEKSEGLQLNFQQNVDDAMTVLPKLATGLDVNVRFTGVSDFEYTPECSVFDLLGIPLYHGWLVDPQSPEAVRAVGKLSYNQLVERIITCKHSSDTNLVTEGLIAEQFPETTAAQLTYHGLCELTAAAKEGELSVFFRNNHFSTMTKHKSHLYLLVTDQGFLQEEQVVWESLHNVDGDSCFCDSDFHLRHSLGKGPGAEGGSGSPEKQLQVDQDYLIALSLQQQQPRGPLGLTDLELAQQLQQEEYQQQQAAQPVRMRTRVLSLQGRGATSGRPAGERRQRPKHESDCILL | not soluble |
| MSLTQMEMARKGVVSDEMKKVAEYEGVDVEIVRQKLAEGRAVLPKNKLHRIERPMIVGEGFSVKVNANIGTSQGFSSLEEEKEKARVAIEYGADSLMVLSTWGDLREIRRAIVEMSPVPVGSVPIYDSAVRSYQMKKNVVDFSEKDFFDMVIAHAEDGIDFMTIHVGVTRRVLDRIKSSRRVLKIVSRGGAIIAGWMIKNNKENPFYEHFDELLDIAKDYDITLSLGDGMRPGAVVDASDAQQFEELFVMGELVERAREKGVQVMLEGPGHVPLNEVEMNVRLMKKIGKGAPIFLLGPLPTDRAMGYDHIACAIGGALAGYYGADFLCYVTPSEHISLPDVEDVREGVIASKIAAIVADVARGNKKAWELEKKMALARKNFDWETMFSLSLGKDVAKKKYEERPYPDKGCSMCGPFCAIKIAEEFSEGHHHHHH | soluble |
| IVSREAKLQFAYLENFKTKMRSTVSVREGQGVVLLCGPPPHSGELSYAWIFNEYPSFVEEDSRRFVSQETGHLYISKVEPSDVGNYTCVVTSMVTNARVLGSPTPLVLRSDGVMGEYEPKIEVQFPETLPAAKGSTVKLECFALGNPIPQINWRRSDGLPFSSKIKLRKFSGVLEIPNFQQEDAGSYECIAENSRGKNVARGRLTYYAKPHWVQLIKDVEIAVEDSLYWECRASGKPKPSYRWLKNGAALVLEERTQIENGALTISNLSVTDSGMFQCIAENKHGLVYSSAELKVVASAPDFSKNPMKKLVQVQVGSLVSLDCKPRASPRALSSWKKGDVSVQEHERISLLNDGGLKIANVTKADAGTYTCMAENQFGKANGTTHLVVTEPTRITLAPSNMDVSVGESVILPCQVQHDPLLDIIFTWYFNGALADFKKDGSHFEKVGGSSSGDLMIRNIQLKHSGKYVCMVQTGVDSVSSAADLIVRGSPGPPENVKVDEITDTTAQLSWKEGKDNHSPVISYSIQARTPFSVGWQTVTTVPEVIDGKTHTATVVELNPWVEYEFRVVASNKIGGGEPSLPSEKVRTEEAVPEVPPSEVNGGGGSRSELVITWDPVPEELQNGEGFGYVVAFRPLGVTTWIQTVVTSPDTPRYVFRNESIVPYSPYEVKVGVYNNKGEGPFSPVTTVFSAEEEPTVAPSQVSANSLSSSEIEVSWNTIPWKLSNGHLLGYEVRYWNGGGKEESSSKMKVAGNETSARLRGLKSNLAYYTAVRAYNSAGAGPFSATVNVTTKKTPPSQPPGNVVWNATDTKVLLNWEQVKAMENESEVTGYKVFYRTSSQNNVQVLNTNKTSAELVLPIKEDYIIEVKATTDGGDGTSSEQIRIPRITSMDARGSTSAISNVHPMSSYMPIVLFLIVYVLW | soluble |
| MGSDKIHHHHHHMDKLLFGISGIPNGSGNEKFTYETGIDYLKSIGLDAMELPFVRSVNITNKNREGILNKKHEKDFYLSAHGSYFINLNAEENEKQEASLKRIVSGADALKSVEGKSLIFHPGFYLKDSKEETFNTIKENLKKLPDIGVDYRLETTGKPTQFGSLEENVALASEVKTCKLCIDFCHLHARYNGLFKTIEDFDKVLSYVGEKLGEAALNDMHIHMSGINYGIKGEKNHLPFKESDFPYEKCIKSFVKFNIKGCIICESPLLEKDSLLLKSIYEAS | not soluble |
| MSSATTNSKIIHATRQHVYEALTQKEALEFWLAPDQMTGKIHDFDLSVGGGYTMSLFYTDNSIKGKTSGNEDRYTSTFIELQPYEKVVHSITFQSEKKEFEEAMIMEVFLEEKGKDVTNVTIFFKNIPAGITPEDNEAGTKESLDKLARYLENNNRSASEKKLEHHHHHH | soluble |
| MGSDKIHHHHHHASHYLLLGGSGWDKIAIVNKNTKEIEWEHPLEKGWECNSVAVTPDRNILFSYSKGAKLITRDHEEVWNISAPEGCEMQTARVLPNGNYLLAWCGYPATIMEVNAKGEILSKTDFDTHIEQPHAQFRQVNKNKQGNYLVPLFATSEIREISPSGQLLKSVKVDGNPFSVAALDNGNYLVACGDAHCFIELNFETGDIVRKVNENDIEGAQLFFVAQLLPKRDGGLYICNWQGHDGEAAKGHYPQLIEINGAGKMVWDLNDNATFGMISSICPID | not soluble |
| MGSDKIHHHHHHMRLFTSKSRYLIGVDIGTTSVKLVDIQRQQGVFHLRSYGTEILSEGIVIDKLIVDTEAVGNTIAGLARRCQAVGSSAATAVSGSAVITKIIDMDMVLNDVEREAQIRLDADQYIPYPLDDVNLDFEVLGPSLINDDMVQVLLAASRSENVDQRVDALTFGGLQTKVMDIESHAIERAFGLMVDSLPNLPELVALVDIGHNQTTLYVAKNGEFIYSREQLFGGSQLTEAIQNRYGLSAEEASISQREHALPEDYYPDVLTPFIENTIQQITRSLQFYFSSSQYSSIDHVVLAGGSSAIAGLAGMAQQRLGVPVSIANPFINMTIAPHIDHEQLAIDAPSLMAACGLALRSFD | not soluble |
